The target in assay [1] is ClC-3c, C-terminally GFP-tagged (mouse).
The target is the same in assay [2]. Nature of the assay: FRET or BRET; FLIM-FRET in co-transfected HEK293T cells 24 h after transfection; GFP donor (488 nm), mCherry acceptor; efficiency from the donor lifetime (phasor plot) against donor-only cells.

Consider one substance from PMC11355779.

Sequence of ClC-3c, C-terminally GFP-tagged (mouse) (P51791 whole entry): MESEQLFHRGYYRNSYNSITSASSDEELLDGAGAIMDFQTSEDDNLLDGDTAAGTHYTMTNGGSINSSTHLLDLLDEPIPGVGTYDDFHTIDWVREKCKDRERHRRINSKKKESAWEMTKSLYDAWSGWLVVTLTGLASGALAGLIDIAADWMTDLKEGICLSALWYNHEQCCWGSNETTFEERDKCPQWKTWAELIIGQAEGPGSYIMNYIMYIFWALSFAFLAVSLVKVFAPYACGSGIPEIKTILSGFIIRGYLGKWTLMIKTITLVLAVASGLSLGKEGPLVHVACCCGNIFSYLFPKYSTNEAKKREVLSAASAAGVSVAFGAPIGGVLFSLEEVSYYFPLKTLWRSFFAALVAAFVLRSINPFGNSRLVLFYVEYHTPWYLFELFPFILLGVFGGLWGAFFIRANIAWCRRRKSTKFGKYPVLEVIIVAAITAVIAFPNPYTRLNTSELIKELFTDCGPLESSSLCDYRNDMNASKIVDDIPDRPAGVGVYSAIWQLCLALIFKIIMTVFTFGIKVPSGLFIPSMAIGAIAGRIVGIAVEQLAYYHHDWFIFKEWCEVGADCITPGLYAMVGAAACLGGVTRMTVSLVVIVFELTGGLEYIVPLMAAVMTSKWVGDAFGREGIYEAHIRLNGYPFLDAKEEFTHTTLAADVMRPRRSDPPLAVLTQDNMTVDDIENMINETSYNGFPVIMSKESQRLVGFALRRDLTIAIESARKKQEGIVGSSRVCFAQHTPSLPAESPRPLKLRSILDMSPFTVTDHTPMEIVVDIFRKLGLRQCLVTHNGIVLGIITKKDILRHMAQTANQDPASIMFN

In assay [1], “TMEM9 Domain Family Member B (TMEM9B), C-terminally mCherry-tagged (from UniProt Q9JJR8 35-199) (natural protein)” yielded a fast time constant of ClC-3 current activation in HEK cells co-transfected with TMEM9B (double exponential fit, 500 ms pulses) of 21 ms; a reduction of ClC-3 activity (whole-cell currents) in HEK cells by co-expression of TMEM9B of 70%; a slow time constant of ClC-3 current activation in HEK cells co-transfected with TMEM9B (double exponential fit, 500 ms pulses) of 120 ms. The same substance yielded an FRET efficiency in assay [2] of 0.17.
